Data: PMC10786891, “Massively parallel profiling of RNA-targeting CRISPR-Cas13d”

B1: target 1 MT 5'PFS GGA 3'PFS AGC (mixed)
RNA 1: CACCCGUGCAAAAAUGCAGGGGUCUAAAACUGAGCGGAUAACCUCUCUAUGG
RNA 2: GGGAAUGGAUCCACAUCUACGAAUUCGGACCAUAGAGAGGUUAUCCGCUCAAGCAGAUCGGAAGAGCACACGU
B2: target 1 MT 5'PFS CUG 3'PFS UAC (mixed)
RNA 1: CACCCGUGCAAAAAUGCAGGGGUCUAAAACUGAGCGGAUAACCUCUCUAUGG
RNA 2: GGGAAUGGAUCCACAUCUACGAAUUCCUGCCAUAGAGAGGUUAUCCGCUCAUACAGAUCGGAAGAGCACACGU
B3: target 1 MT 5'PFS UAG 3'PFS CGG (mixed)
RNA 1: CACCCGUGCAAAAAUGCAGGGGUCUAAAACUGAGCGGAUAACCUCUCUAUGG
RNA 2: GGGAAUGGAUCCACAUCUACGAAUUCUAGCCAUAGAGAGGUUAUCCGCUCACGGAGAUCGGAAGAGCACACGU
B4: target 1 MT 5'PFS UAG 3'PFS CGA (mixed)
RNA 1: CACCCGUGCAAAAAUGCAGGGGUCUAAAACUGAGCGGAUAACCUCUCUAUGG
RNA 2: GGGAAUGGAUCCACAUCUACGAAUUCUAGCCAUAGAGAGGUUAUCCGCUCACGAAGAUCGGAAGAGCACACGU
B5: target 1 MT 5'PFS GGA 3'PFS AGU (mixed)
RNA 1: CACCCGUGCAAAAAUGCAGGGGUCUAAAACUGAGCGGAUAACCUCUCUAUGG
RNA 2: GGGAAUGGAUCCACAUCUACGAAUUCGGACCAUAGAGAGGUUAUCCGCUCAAGUAGAUCGGAAGAGCACACGU
B6: target 1 MT 5'PFS GGA 3'PFS GGG (mixed)
RNA 1: CACCCGUGCAAAAAUGCAGGGGUCUAAAACUGAGCGGAUAACCUCUCUAUGG
RNA 2: GGGAAUGGAUCCACAUCUACGAAUUCGGACCAUAGAGAGGUUAUCCGCUCAGGGAGAUCGGAAGAGCACACGU
B7: target 1 MT 5'PFS GUG 3'PFS CUU (mixed)
RNA 1: CACCCGUGCAAAAAUGCAGGGGUCUAAAACUGAGCGGAUAACCUCUCUAUGG
RNA 2: GGGAAUGGAUCCACAUCUACGAAUUCGUGCCAUAGAGAGGUUAUCCGCUCACUUAGAUCGGAAGAGCACACGU
B8: target 1 C4A (mixed)
RNA 1: CACCCGUGCAAAAAUGCAGGGGUCUAAAACUGAGCGGAUAACCUCUCUAUGG
RNA 2: GGGAAUGGAUCCACAUCUACGAAUUCGUACCAUAGAGAGGUUAUCCGAUCACCGAGAUCGGAAGAGCACACGU
B9: target 1 MT 5'PFS UAG 3'PFS CGU (mixed)
RNA 1: CACCCGUGCAAAAAUGCAGGGGUCUAAAACUGAGCGGAUAACCUCUCUAUGG
RNA 2: GGGAAUGGAUCCACAUCUACGAAUUCUAGCCAUAGAGAGGUUAUCCGCUCACGUAGAUCGGAAGAGCACACGU
B10: target 1 MT 5'PFS GCG 3'PFS UGA (mixed)
RNA 1: CACCCGUGCAAAAAUGCAGGGGUCUAAAACUGAGCGGAUAACCUCUCUAUGG
RNA 2: GGGAAUGGAUCCACAUCUACGAAUUCGCGCCAUAGAGAGGUUAUCCGCUCAUGAAGAUCGGAAGAGCACACGU
B11: target 1 MT 5'PFS GCG 3'PFS UGC (mixed)
RNA 1: CACCCGUGCAAAAAUGCAGGGGUCUAAAACUGAGCGGAUAACCUCUCUAUGG
RNA 2: GGGAAUGGAUCCACAUCUACGAAUUCGCGCCAUAGAGAGGUUAUCCGCUCAUGCAGAUCGGAAGAGCACACGU
B12: target 1 MT 5'PFS GAA 3'PFS AAC (mixed)
RNA 1: CACCCGUGCAAAAAUGCAGGGGUCUAAAACUGAGCGGAUAACCUCUCUAUGG
RNA 2: GGGAAUGGAUCCACAUCUACGAAUUCGAACCAUAGAGAGGUUAUCCGCUCAAACAGAUCGGAAGAGCACACGU
B13: target 1 MT 5'PFS AAU 3'PFS AAU (mixed)
RNA 1: CACCCGUGCAAAAAUGCAGGGGUCUAAAACUGAGCGGAUAACCUCUCUAUGG
RNA 2: GGGAAUGGAUCCACAUCUACGAAUUCAAUCCAUAGAGAGGUUAUCCGCUCAAAUAGAUCGGAAGAGCACACGU
B14: target 1 MT 5'PFS GGC 3'PFS UUA (mixed)
RNA 1: CACCCGUGCAAAAAUGCAGGGGUCUAAAACUGAGCGGAUAACCUCUCUAUGG
RNA 2: GGGAAUGGAUCCACAUCUACGAAUUCGGCCCAUAGAGAGGUUAUCCGCUCAUUAAGAUCGGAAGAGCACACGU
B15: target 1 MT 5'PFS ACU 3'PFS AUU (mixed)
RNA 1: CACCCGUGCAAAAAUGCAGGGGUCUAAAACUGAGCGGAUAACCUCUCUAUGG
RNA 2: GGGAAUGGAUCCACAUCUACGAAUUCACUCCAUAGAGAGGUUAUCCGCUCAAUUAGAUCGGAAGAGCACACGU
B16: target 1 MT 5'PFS GGC 3'PFS UUC (mixed)
RNA 1: CACCCGUGCAAAAAUGCAGGGGUCUAAAACUGAGCGGAUAACCUCUCUAUGG
RNA 2: GGGAAUGGAUCCACAUCUACGAAUUCGGCCCAUAGAGAGGUUAUCCGCUCAUUCAGAUCGGAAGAGCACACGU
B17: target 1 MT 5'PFS UCG 3'PFS UGU (mixed)
RNA 1: CACCCGUGCAAAAAUGCAGGGGUCUAAAACUGAGCGGAUAACCUCUCUAUGG
RNA 2: GGGAAUGGAUCCACAUCUACGAAUUCUCGCCAUAGAGAGGUUAUCCGCUCAUGUAGAUCGGAAGAGCACACGU
B18: target 1 MT 5'PFS CUC 3'PFS CGA (mixed)
RNA 1: CACCCGUGCAAAAAUGCAGGGGUCUAAAACUGAGCGGAUAACCUCUCUAUGG
RNA 2: GGGAAUGGAUCCACAUCUACGAAUUCCUCCCAUAGAGAGGUUAUCCGCUCACGAAGAUCGGAAGAGCACACGU
B19: target 1 C4A,C7A (mixed)
RNA 1: CACCCGUGCAAAAAUGCAGGGGUCUAAAACUGAGCGGAUAACCUCUCUAUGG
RNA 2: GGGAAUGGAUCCACAUCUACGAAUUCGUACCAUAGAGAGGUUAUACGAUCACCGAGAUCGGAAGAGCACACGU
B20: target 1 MT 5'PFS ACU 3'PFS AUC (mixed)
RNA 1: CACCCGUGCAAAAAUGCAGGGGUCUAAAACUGAGCGGAUAACCUCUCUAUGG
RNA 2: GGGAAUGGAUCCACAUCUACGAAUUCACUCCAUAGAGAGGUUAUCCGCUCAAUCAGAUCGGAAGAGCACACGU
B21: target 1 MT 5'PFS ACU 3'PFS AUA (mixed)
RNA 1: CACCCGUGCAAAAAUGCAGGGGUCUAAAACUGAGCGGAUAACCUCUCUAUGG
RNA 2: GGGAAUGGAUCCACAUCUACGAAUUCACUCCAUAGAGAGGUUAUCCGCUCAAUAAGAUCGGAAGAGCACACGU
B22: target 1 MT 5'PFS AAU 3'PFS AAC (mixed)
RNA 1: CACCCGUGCAAAAAUGCAGGGGUCUAAAACUGAGCGGAUAACCUCUCUAUGG
RNA 2: GGGAAUGGAUCCACAUCUACGAAUUCAAUCCAUAGAGAGGUUAUCCGCUCAAACAGAUCGGAAGAGCACACGU
B23: target 1 MT 5'PFS UAC 3'PFS UCU (mixed)
RNA 1: CACCCGUGCAAAAAUGCAGGGGUCUAAAACUGAGCGGAUAACCUCUCUAUGG
RNA 2: GGGAAUGGAUCCACAUCUACGAAUUCUACCCAUAGAGAGGUUAUCCGCUCAUCUAGAUCGGAAGAGCACACGU
B24: target 1 MT 5'PFS GAA 3'PFS AAU (mixed)
RNA 1: CACCCGUGCAAAAAUGCAGGGGUCUAAAACUGAGCGGAUAACCUCUCUAUGG
RNA 2: GGGAAUGGAUCCACAUCUACGAAUUCGAACCAUAGAGAGGUUAUCCGCUCAAAUAGAUCGGAAGAGCACACGU

Molecular target: T1, EsCas13d, nuclease-dead (Eubacterium siraeum, UniProt B0MS50, R295A;H300A;R849A;H854A)
T1 sequence: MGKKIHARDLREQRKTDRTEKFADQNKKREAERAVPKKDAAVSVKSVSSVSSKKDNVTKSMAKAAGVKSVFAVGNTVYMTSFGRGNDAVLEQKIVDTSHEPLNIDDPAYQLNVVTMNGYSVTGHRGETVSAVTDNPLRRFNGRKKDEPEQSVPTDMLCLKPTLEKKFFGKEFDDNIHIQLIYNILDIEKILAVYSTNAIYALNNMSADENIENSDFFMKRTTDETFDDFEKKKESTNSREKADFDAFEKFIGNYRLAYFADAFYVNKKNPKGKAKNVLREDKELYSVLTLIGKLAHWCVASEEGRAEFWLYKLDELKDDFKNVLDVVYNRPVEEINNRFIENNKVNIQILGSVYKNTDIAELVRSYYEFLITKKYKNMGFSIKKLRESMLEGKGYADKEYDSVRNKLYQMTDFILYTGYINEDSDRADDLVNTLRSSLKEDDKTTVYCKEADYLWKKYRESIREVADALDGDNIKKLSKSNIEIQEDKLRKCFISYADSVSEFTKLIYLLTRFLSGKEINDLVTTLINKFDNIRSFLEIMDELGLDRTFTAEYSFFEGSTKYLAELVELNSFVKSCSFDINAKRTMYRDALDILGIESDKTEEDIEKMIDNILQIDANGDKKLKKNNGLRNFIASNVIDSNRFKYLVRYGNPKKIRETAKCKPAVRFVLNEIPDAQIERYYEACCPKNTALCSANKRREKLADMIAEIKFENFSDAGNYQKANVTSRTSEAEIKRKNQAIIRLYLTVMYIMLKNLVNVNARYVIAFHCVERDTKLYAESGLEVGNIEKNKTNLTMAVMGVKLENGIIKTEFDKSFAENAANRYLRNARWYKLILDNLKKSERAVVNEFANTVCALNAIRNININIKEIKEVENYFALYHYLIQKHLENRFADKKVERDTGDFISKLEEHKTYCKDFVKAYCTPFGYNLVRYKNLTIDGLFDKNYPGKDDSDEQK
Test: crRNA (strand 1, pre-loaded); Mg2+; 40 mM Tris-HCl pH 7.5, 150 mM NaCl, 6 mM MgCl2, 1 mM DTT, 0.1% Tween-20, 0.2 mg/ml BSA; 25 C; 10 min per concentration, then washed
Conditions: tags: His6-TwinStrep-SUMO cleaved; N-terminal SNAP kept (SNAP-Surface 488); label: 3' end held by stalled T7 RNA polymerase

Compared with B1, B2 is 3.8-fold lower in Kd: 15.6 ± 2.9 nM for the first, 4.1 ± 0.7 nM for the second.

Going from B3 to B4, the Kd falls from 55 ± 10 nM to 27 ± 6 nM (2-fold). The second binds more tightly here.

Going from B5 to B6, the Kd rises from 22 ± 3.7 nM to 54 ± 18 nM (2.5-fold). The first binds more tightly here.

Going from B7 to B8, the Kd falls from 10.2 ± 0.9 nM to 3.8 ± 0.4 nM (2.7-fold). The second binds more tightly here.

First: B9
Second: B10
The Kd of the first is 3.1-fold higher: 63.5 ± 28 nM for the first, 20.8 ± 7.75 nM for the second. The second binds more tightly here.

Compared with B11, B12 is 2.1-fold higher in Kd: 22.5 ± 6.5 nM for the first, about 47 nM for the second. The first binds more tightly here.

Going from B13 to B14, the Kd falls from 38 ± 17 nM to 11.7 ± 2.55 nM (3.2-fold). The second binds more tightly here.

Compared with B15, B16 is 4.1-fold lower in Kd: 53 ± 26 nM for the first, 12.9 ± 2.4 nM for the second.

B17 and B18 are within error of each other in Kd: 57 ± 22 nM for the first, 80 ± 40 nM for the second.

Going from B19 to B20, the Kd rises from 6.6 ± 0.4 nM to about 50 nM (7.6-fold). The first binds more tightly here.

B21 and B22 are within error of each other in Kd: 67 ± 18 nM for the first, 47.5 ± 18.5 nM for the second.

First: B23
Second: B24
The Kd of the first is 4.1-fold lower: 9.9 ± 3.2 nM for the first, 40.5 ± 13 nM for the second. The first binds more tightly here.
